Results as given in article PMC10614411, “Endometrial cancer (EC) derived G3BP1 overexpression and mutant promote EC tumorigenesis and metastasis via SPOP/ERα axis” (Cell Communication and Signaling : CCS, 2023).

Target: T1, FLAG-G3BP1 Q392*, bacterially expressed (UniProt Q13283 1-391, Q392*)
T1 construct: The bacterial expression construct is not described in the methods; source: bacterially expressed
Experiment: pull-down; GST fusion protein fixed on glutathione-Sepharose beads, incubated with recombinant FLAG-labeled proteins for 2 h, washed 5 times, Western blot with anti-FLAG
Conditions: both partners purified

T1 sequence (Q13283 1-391, stated change not applied): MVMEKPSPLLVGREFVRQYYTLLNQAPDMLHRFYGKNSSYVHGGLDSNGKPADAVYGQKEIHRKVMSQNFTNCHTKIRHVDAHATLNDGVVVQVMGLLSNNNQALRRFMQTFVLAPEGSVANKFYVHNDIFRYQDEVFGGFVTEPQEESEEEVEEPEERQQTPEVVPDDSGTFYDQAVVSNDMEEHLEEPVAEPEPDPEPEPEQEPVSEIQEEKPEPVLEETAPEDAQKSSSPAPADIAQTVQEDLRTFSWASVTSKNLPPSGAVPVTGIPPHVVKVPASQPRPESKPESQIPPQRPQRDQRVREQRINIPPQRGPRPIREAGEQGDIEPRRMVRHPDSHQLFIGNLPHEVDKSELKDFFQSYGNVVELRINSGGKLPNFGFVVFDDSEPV

B1: GST-SPOP, bacterially expressed (natural protein, UniProt O43791 1-374, looked up)
chain: MSRVPSPPPPAEMSSGPVAESWCYTQIKVVKFSYMWTINNFSFCREEMGEVIKSSTFSSGANDKLKWCLRVNPKGLDEESKDYLSLYLLLVSCPKSEVRAKFKFSILNAKGEETKAMESQRAYRFVQGKDWGFKKFIRRDFLLDEANGLLPDDKLTLFCEVSVVQDSVNISGQNTMNMVKVPECRLADELGGLWENSRFTDCCLCVAGQEFQAHKAILAARSPVFSAMFEHEMEESKKNRVEINDVEPEVFKEMMCFIYTGKAPNLDKMADDLLAAADKYALERLKVMCEDALCSNLSVENAAEILILADLHSADQLKTQAVDFINYHASDVLETSGWKSMVVSHPHLVAEAYRSLASAQCPFLGPPRKRLKQS
notes: SPOP as a GST fusion protein; The bacterial expression construct is not described in the methods
- binding result: binds
